One series addresses T1, human Notch2 NRR-Fc (Homo sapiens, UniProt Q04721).
T1 construct: Expression constructs encoding human Notch1 and Notch2 NRR regions, fused with human IgG1 Fc fragments; made in house; host or cells: CHO-PACE cells
T1 sequence (Q04721 1425-1677 limits assumed): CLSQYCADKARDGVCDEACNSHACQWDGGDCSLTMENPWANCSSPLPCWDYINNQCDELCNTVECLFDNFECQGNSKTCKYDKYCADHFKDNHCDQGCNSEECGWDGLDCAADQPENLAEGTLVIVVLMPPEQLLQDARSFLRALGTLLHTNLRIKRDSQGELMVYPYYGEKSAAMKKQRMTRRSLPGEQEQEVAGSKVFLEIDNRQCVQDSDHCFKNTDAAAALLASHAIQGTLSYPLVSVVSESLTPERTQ
The series is described as follows: Binding to Notch2 NRR-Fc. As to conditions: N/B = non-binding. The text has this:
(§1) Other members of the Notch receptor family play important roles in biological processes. For example, a Notch1 or Notch2 deficiency leads to embryonic death in mouse models. In contrast, a Notch4 deficiency results in no detectable phenotype in mouse models. The closest homologues of the Notch3 NRR region are Notch1 and Notch2 (˜50% homology), and Notch4 is a more distant homologue (˜30% homology). Cross-reactivity of anti-Notch3 antibodies to other members of the Notch family, especially Notch1 and 2, may lead to undesired effects in patients. Therefore, the potential cross-reactivity of r28 and hu28, along with r75 and hu75 to other Notch family members were assessed.
(§2) Expression constructs encoding human Notch1 and Notch2 NRR regions, fused with human IgG1 Fc fragments were stably introduced into CHO-PACE cells. Conditioned media from these cells expressing NRR-Fc fusions were collected. Human Notch2 NRR-Fc and human Notch1 NRR-Fc were purified by protein A affinity followed by size exclusion chromatography (SEC). Purified preparations were dialysed into TBS with 1 mM CaCl2 and analyzed on analytical SEC to be >99% in purity.

Series [1] concerns MDA-MB-468 (breast cancer). Description: In vitro cytotoxicity (MTS), MDA-MB-468. It counts as cell-based, human. As to conditions: Table 13; four days; LP = lacked potency. As for the experimental part:
(§3) The effects of anti-Notch3 ADCs were assessed on 1) cell lines endogenously expressing Notch3 protein: HCC2429 (lung cancer), OVCAR3 (ovarian cancer) and MDA-MB-468 (breast cancer), 2) cell lines engineered to over-express full length human Notch3 protein: MDA-MB-468/hNotch3 and U2OS/hNotch3, and 3) a negative control cell line (SW900) using an MTS cellular viability indicator (Promega, Madison, Wis.). These cell lines were cultured with increasing concentrations of anti-Notch3 ADCs comprising rat-human chimeric anti-Notch3 antibodies, ch28 and ch75, and humanized anti-Notch3 antibodies, hu28 and hu75, conjugated to various linker-payload combinations of the present invention. As a specificity control for the anti-Notch3-ADCs, non-targeted control-ADCs (huNeg8.8-ADCs or ch2H6-ADCs) were also tested on the same cell lines. After four days, viability of each culture was assessed. IC50 values were calculated by logistic non-linear regression, model #203 with XL fit v4.2 (IDBS, Guildford, Surry, UK) and presented as ng Ab/mL. The drug antibody ratio (DAR) is also provided.

For a further series, the system named is HCC2429 (lung cancer). The series is described as follows: In vitro cytotoxicity (MTS), HCC2429. The following applies: Table 13; four days; LP = lacked potency. In kind it is cell-based, human. As for the experimental part: as §3
(§4) This process generated the anti-Notch3 cysteine mutant ADCs: hu28-(L443C)-vc0101 and hu28-(L443C/κK183C)-vc0101. The activity of the anti-Notch3 cysteine mutant ADCs were assessed on cell lines endogenously expressing Notch3 protein: HCC2429 (lung cancer) and OVCAR3 (ovarian cancer) using an MTS cellular viability indicator as described in previous Examples.

The next series deals with T2, MDA-MB-468/hNotch3 (Homo sapiens, UniProt Q9UM47).
T2 construct: cell lines engineered to over-express full length human Notch3 protein: MDA-MB-468/hNotch3 and U2OS/hNotch3; expressed in transfected cells; host or cells: MDA-MB-468
T2 sequence (Q9UM47 40-2321): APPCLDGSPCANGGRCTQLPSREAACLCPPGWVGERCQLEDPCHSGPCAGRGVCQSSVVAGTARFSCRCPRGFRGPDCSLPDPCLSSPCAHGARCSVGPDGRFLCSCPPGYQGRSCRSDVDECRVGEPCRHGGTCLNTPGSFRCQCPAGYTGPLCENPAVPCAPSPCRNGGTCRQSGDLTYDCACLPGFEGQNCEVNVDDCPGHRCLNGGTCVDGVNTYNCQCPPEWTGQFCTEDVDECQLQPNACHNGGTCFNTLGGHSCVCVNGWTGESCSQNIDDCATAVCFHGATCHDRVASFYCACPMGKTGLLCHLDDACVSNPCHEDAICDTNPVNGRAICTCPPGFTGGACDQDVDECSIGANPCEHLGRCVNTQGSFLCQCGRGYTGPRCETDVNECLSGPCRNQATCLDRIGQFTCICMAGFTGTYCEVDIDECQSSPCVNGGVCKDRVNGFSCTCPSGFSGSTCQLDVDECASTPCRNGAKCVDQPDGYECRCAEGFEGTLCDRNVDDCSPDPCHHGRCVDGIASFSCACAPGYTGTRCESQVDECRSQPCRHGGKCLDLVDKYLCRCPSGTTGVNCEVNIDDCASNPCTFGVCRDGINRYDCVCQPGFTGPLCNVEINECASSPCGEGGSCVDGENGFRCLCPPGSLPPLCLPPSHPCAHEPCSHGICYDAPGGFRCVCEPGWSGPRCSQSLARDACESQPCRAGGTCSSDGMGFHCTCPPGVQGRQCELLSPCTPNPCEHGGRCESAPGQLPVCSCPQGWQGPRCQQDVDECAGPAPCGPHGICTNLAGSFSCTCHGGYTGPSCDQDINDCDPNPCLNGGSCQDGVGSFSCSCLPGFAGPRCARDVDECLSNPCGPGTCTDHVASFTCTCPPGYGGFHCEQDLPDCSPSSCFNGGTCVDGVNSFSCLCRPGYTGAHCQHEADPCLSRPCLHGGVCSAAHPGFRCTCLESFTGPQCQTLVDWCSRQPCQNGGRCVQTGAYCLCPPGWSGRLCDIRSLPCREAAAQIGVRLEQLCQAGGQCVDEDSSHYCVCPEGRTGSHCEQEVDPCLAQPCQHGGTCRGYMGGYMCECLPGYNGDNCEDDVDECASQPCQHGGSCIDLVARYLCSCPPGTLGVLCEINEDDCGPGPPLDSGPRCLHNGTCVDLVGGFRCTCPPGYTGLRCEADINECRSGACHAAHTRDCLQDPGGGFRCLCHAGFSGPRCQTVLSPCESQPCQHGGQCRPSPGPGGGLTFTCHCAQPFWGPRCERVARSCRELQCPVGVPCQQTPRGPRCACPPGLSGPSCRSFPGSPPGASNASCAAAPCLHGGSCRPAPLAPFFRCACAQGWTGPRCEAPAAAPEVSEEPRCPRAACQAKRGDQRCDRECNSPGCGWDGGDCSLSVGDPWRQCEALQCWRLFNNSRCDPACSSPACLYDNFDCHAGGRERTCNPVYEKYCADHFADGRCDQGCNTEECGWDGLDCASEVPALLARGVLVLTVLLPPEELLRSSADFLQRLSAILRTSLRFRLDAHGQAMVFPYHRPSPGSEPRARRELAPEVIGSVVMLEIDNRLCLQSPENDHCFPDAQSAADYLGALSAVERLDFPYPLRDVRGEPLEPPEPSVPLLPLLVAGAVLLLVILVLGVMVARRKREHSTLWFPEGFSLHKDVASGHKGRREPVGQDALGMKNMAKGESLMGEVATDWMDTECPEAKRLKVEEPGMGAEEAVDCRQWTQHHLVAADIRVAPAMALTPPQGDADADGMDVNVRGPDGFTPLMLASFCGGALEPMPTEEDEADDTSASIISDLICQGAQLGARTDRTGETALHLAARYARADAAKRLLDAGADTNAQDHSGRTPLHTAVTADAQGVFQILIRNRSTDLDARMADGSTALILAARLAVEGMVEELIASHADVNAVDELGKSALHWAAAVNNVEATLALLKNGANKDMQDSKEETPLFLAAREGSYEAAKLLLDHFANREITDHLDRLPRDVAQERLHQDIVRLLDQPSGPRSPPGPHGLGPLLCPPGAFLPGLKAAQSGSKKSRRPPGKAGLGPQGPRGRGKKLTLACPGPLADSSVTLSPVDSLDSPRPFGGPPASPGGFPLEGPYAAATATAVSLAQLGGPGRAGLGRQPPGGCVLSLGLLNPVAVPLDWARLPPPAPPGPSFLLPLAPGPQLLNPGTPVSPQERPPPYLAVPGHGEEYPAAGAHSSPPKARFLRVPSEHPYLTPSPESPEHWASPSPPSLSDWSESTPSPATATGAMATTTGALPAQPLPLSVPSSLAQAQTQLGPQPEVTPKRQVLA
The series is described as follows: In vitro cytotoxicity (MTS), MDA-MB-468/hNotch3. The following applies: Table 13; four days; LP = lacked potency. It counts as cell-based. As for the experimental part:
as §3

Another series concerns OVCAR3 (ovarian cancer). The series is described as follows: In vitro cytotoxicity (MTS), OVCAR3. It counts as cell-based, human. The following applies: Table 13; four days; LP = lacked potency. As for the experimental part:
as §3, §4

The next series relates to N87 gastric xenografts. Description: N87 gastric xenograft model. It counts as in vivo, mouse. As to conditions: 5 mg/kg iv Q4dx4; FIG. 16D, 16E. As for the experimental part:
Similar in vivo experiments were performed with the N87 gastric cancer cell line as described above. To generate xenografts, nude (Nu/Nu) female mice were implanted subcutaneously with 8×10^6 N87 cells in 50% Matrigel (BD Biosciences).
The N87 gastric model was also dosed intravenously Q4d×4 with PBS vehicle, rat-human chimeric anti-Notch3 ADCs and control huNeg-8.8 ADCs, at a dose of 5 mg/kg as provided in FIG. 16D.
The N87 gastric model was also dosed intravenously Q4d×4 with PBS vehicle and rat-human chimeric anti-Notch3 ADCs ch28-mc0131, ch75-mc0131, ch28-m(H2O)c-0131 and ch75-m(H2O)c-0131 at a dose of 5 mg/kg as provided in FIG. 16E.

The target in another series is U2OS/hNotch3 (Homo sapiens, UniProt Q9UM47). The series is described as follows: In vitro cytotoxicity (MTS), U2OS/hNotch3. It counts as cell-based. Further details: U-2 OS cells stably over-expressing human full length Notch3 protein on cell surface; expressed in transfected cells; host or cells: U-2 OS (human osteosarcoma). The following applies: Table 13; four days; LP = lacked potency. As for the experimental part:
as §3

Series [2] can be described thus: Thermal stability by differential scanning calorimetry (DSC). The following applies: 0.3 mg/ml in PBS. In kind it is physicochemical. As for the experimental part:
There is a positive correlation between the thermal stability of a protein or protein domain with the overall stability of the protein or protein domain. A higher melting point of a protein or protein domain often provides improved manufacturability and longer shelf life. Differential scanning calorimetry (DSC) was used to assess the thermal stability of hu28 and hu75 versus ch28 and ch75, respectively. Protein samples were diluted in PBS to 0.3 mg/ml in a volume of 250 μl. The corresponding formulation buffer blank was used for the reference sample. Both samples were thoroughly degassed using a MicroCal ThermoVac Sample Degassing and Thermostat (Microcal, Inc., Northampton, Mass.) set to 8° C. Samples were dispensed into the appropriate cells of a MicroCal VP-DSC Capillary Cell MicroCalorimter (MicroCal, Inc., Northampton, Mass.). Samples were equilibrated for 4 minutes at 15° C. and then scanned up to 100° C. at a rate of 100° C. per hour. A filtering period of 20 seconds was selected. Raw data was baseline corrected and the protein concentration was normalized. Origin Software (OriginLab Corporation, Northampton, Mass.) was used to fit the data to an MN2-State Model with an appropriate number of transitions.
In general terms: In DSC, transitions show as peaks or steps in heat flow.

Series [3] concerns the target T3, human Notch3 NRR recombinant protein (Homo sapiens, UniProt Q9UM47).
T3 construct: made in house
T3 sequence (Q9UM47 with tags, fused parts or gaps): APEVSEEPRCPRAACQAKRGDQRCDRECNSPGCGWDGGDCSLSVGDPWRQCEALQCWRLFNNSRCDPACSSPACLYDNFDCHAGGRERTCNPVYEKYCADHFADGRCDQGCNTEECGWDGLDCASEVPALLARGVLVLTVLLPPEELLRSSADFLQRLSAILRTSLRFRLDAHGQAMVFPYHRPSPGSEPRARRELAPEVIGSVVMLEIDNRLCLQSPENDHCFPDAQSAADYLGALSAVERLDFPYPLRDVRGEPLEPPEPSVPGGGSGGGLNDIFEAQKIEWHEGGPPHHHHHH
The series is described as follows: Surface plasmon resonance (Biacore) kinetic analysis. It counts as binding. As to conditions: antibody captured; 1:1 Langmuir model. As for the experimental part: The kinetic constants of the anti-Notch3 NRR interactions were determined by surface plasmon resonance (Biacore® T100, Biacore Inc., Piscataway, N.J.). Flow cells of a CM5 chip were immobilized with approximately 10,000 response units (RU) of anti-human IgG-Fc (Biacore®) in 10 mM Glycine, pH 5.0 at 10 μl/min for 600 seconds. 10 μg/ml of anti-Notch3 antibodies ch28 and hu28, and ch75 and hu75 were diluted in TBS with 1 mM CaCl2 were captured at 10 μl/min. Association of four concentrations of human Notch3 NRR recombinant protein (from 3.7-100 nM) and a zero concentration (running buffer) at 100 μl/min were recorded for 3 minutes in TBS with 1 mM CaCl2. Dissociation of the complexes was measured for 10 minutes. The surface of the chip was regenerated by injecting 3M MgCl2 with 3 mM EGTA for 60 seconds at 10 μl/min. Curves obtained after subtraction of the reference and buffer signals were fitted to a 1:1 Langmuir binding model with Biacore® T100 Evaluation Software (Biacore®).

A further series concerns the target T4, human Notch1 NRR-Fc (Homo sapiens, UniProt P46531).
T4 construct: Expression constructs encoding human Notch1 and Notch2 NRR regions, fused with human IgG1 Fc fragments; made in house; host or cells: CHO-PACE cells
T4 sequence (P46531 1446-1733 limits assumed): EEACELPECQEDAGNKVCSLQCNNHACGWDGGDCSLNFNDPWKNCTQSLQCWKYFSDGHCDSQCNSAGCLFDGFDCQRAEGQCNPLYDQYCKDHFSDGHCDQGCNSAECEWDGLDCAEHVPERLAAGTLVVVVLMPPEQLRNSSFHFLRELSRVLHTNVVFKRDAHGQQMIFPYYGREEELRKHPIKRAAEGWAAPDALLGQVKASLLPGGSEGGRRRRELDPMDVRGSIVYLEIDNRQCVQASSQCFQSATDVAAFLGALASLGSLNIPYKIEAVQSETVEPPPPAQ
Description: Binding to Notch1 NRR-Fc. The following applies: N/B = non-binding.
From the text: as §1, §2

Positions count from the first letter of the chain named.

U2OS/hNotch3, sequence (Q9UM47 40-2321): as the sequence (Q9UM47 40-2321) above

B1: r75: parental rat anti-Notch3 antibody clone 75 (VH SEQ ID NO: 9, VL SEQ ID NO: 11) (antibody, V domains shown)
VH: QVKLLQSGAALVKPGASVKMSCKASGYAFTDYWVTWVKQSHGKSLEWIGEISPNSGGTNFNEKFKGKATLTVDKSTSTAYMELSRLTSEDSAIYYCTRGEIRYNWFAYWGQGTLVTVSS
VL: DIQMTQSPSSLSASVGDRVTITCKASQNVGNNIAWYQQKPGKAPKLLIYYASNRYTGVPSRFSGSGYGTDFTLTISSLQPEDFATYYCQRLYNSPFTFGGGTKVEIK
For B1, in the series with human Notch2 NRR-Fc, the “Binding to Notch2 NRR-Fc” value is given as “lacked detectable binding”.

B2: ch75-vc6780 (conjugate)
VH: B1 VH
VL: B1 VL
B2: the “IC50 (ng Ab/mL) ± S.E.M., MDA-MB-468” value in series [1] is recorded as 6873 ± 4230.0 ng Ab/mL. For the same molecule, in the series on HCC2429 (lung cancer), the “IC50 (ng Ab/mL) ± S.E.M., HCC2429” value worked out at 1004 ± 177.0 ng Ab/mL. The “IC50 (ng Ab/mL) ± S.E.M., MDA-MB-468/hNotch3” value with MDA-MB-468/hNotch3 amounted to 21 ± 3.5 ng Ab/mL. The “IC50 (ng Ab/mL) ± S.E.M., OVCAR3” value with OVCAR3 (ovarian cancer) was 922 ng Ab/mL.

B3: ch75-mc0131 (conjugate)
VH: B1 VH
VL: B1 VL
On to B3, for which the “IC50 (ng Ab/mL) ± S.E.M., MDA-MB-468” value in series [1] is given as 8202 ± 2773.0 ng Ab/mL. Further, the “growth of N87 gastric xenografts” value in the series with N87 gastric xenografts is recorded as “inhibited growth of N87 gastric xenografts”. In the series with U2OS/hNotch3, the “IC50 (ng Ab/mL) ± S.E.M., U2OS/hNotch3” value turned out to be 19 ng Ab/mL. Also, the “IC50 (ng Ab/mL) ± S.E.M., HCC2429” value with HCC2429 (lung cancer) was 671 ± 406.5 ng Ab/mL. The “IC50 (ng Ab/mL) ± S.E.M., OVCAR3” value with OVCAR3 (ovarian cancer) was 289 ng Ab/mL.

B4: ch75-vc0101: ch75 conjugated to vc0101 linker-payload (conjugate)
VH: B1 VH
VL: B1 VL
In the case of B4, the “IC50 (ng Ab/mL) ± S.E.M., MDA-MB-468” value in [1] came out at 4064 ± 1793.9 ng Ab/mL. Moreover, the “IC50 (ng Ab/mL) ± S.E.M., HCC2429” value with HCC2429 (lung cancer) amounted to 2112 ± 826.0 ng Ab/mL. The “IC50 (ng Ab/mL) ± S.E.M., MDA-MB-468/hNotch3” value in the series with MDA-MB-468/hNotch3 came to 24 ± 4.0 ng Ab/mL.

B5: r28: parental rat anti-Notch3 antibody clone 28 (VH SEQ ID NO: 5, VL SEQ ID NO: 7) (antibody, V domains shown)
VH: EVQLVESGGGLVQPGRSLTLSCVASGFTFRDYGMTWIRQAPGKGLTWVAYISSGSNYIYYAEAVKGRFTISRDNAKNTLYLQMTSLRSEDTALYFCTRRGPFVLDAWGQGASVTVSS
VL: DIQMTQSPSFLSASVGDRVTINCKASQSINRYLHWFQQKLGEAPKLLIYNANGLQTGIPSRFSGSGSGTDFTLTISSLQSEDVATYFCLQHNTWPDTFGAGTKLELK
With B5, the “Binding to Notch2 NRR-Fc” value in the series with human Notch2 NRR-Fc is “lacked detectable binding”.

B6: ch28: rat-human chimeric anti-Notch3 antibody 28, rat variable regions fused with human IgG1 and human kappa (antibody, V domains shown)
VH: B5 VH
VL: B5 VL
For B6, in [2], the “Tm ± Standard Deviation, CH2” value amounted to 70.20 ± 0.05 °C; the “Tm ± Standard Deviation, CH3” value amounted to 84.24 ± 0.07 °C; the “Tm ± Standard Deviation, Fab” value came out at 73.22 ± 0.73 °C. For the same molecule, in series [3], the ka was 409000 M⁻¹ s⁻¹ and the kd came to 0.000249 s⁻¹. Moreover, in the series with human Notch1 NRR-Fc, the “Binding to Notch1 NRR-Fc” value was “N/B”. Also, in the series with human Notch2 NRR-Fc, the “Binding to Notch2 NRR-Fc” value was “N/B”.

The record behind these values is patent US9433687B2, “Anti-Notch3 antibodies and antibody-drug conjugates” (Pfizer Inc., priority 2012, dated 2016).
